# Results taken from patent US20100135997A1 (MEDGENE, published 2010).
# Molecular target: T1, HLA-A*0201 loaded with the Carcinoembryonic antigen (CEA)-derived … peptide (biotin on the C-terminal biotinylation tag)
# T1 construct: Soluble, biotinylated, immobilised on a streptavidin chip
# Assay: Biacore SPR
# Procedure: SPR measures changes in refractive index expressed in response units (RU) near a sensor surface within a small flow cell, a principle that can be used to detect receptor ligand interactions and to analyse their affinity and kinetic parameters. The probe flow cells were prepared by immobilising the pMHC complexes in flow cells via biotin-tag binding. The assay was then performed by passing soluble ILT-like molecule over the surfaces of the different flow cells at a constant flow rate, measuring the SPR response in doing so.
Kd [nM],koff [s⁻¹],Binder
≤ 1000,≤ 2,"SEQ ID NO 85 (receptor, mutated soluble two domain ILT-2) MGHLPKPTLWAEPGSVITQGSPVTLRCQGGQETQEYRLYREKKTAPWITRIPQELVKKGQFPIPSITWEHAGRYRCYYGSDTAGRSESSDPLELVVTGIYQAPTLSAQPSPVVNSGGNVTLQCDSQVAFDGFILCKEGEDEHPQCLNSQPHARGSSRAIFSVGPVSPSRRWWYRCYAYDSNSPYEWSLPSDLLELLVL"
≤ 1000,≤ 2,"SEQ ID NO 90 (receptor, mutated soluble two domain ILT-2) MGHLPKPTLWAEPGSVITQGSPVTLRCQGGQETQEYRLYREKKTAPWITRIPQELVKKGQFPIPSITWEHAGRYRCYYGSDTAGRSESSDPLELVVTGVYIKPTLSAQPSPVVNSGGNVTLQCDSQVAFDGFILCKEGEDEHPQCLNSQPHARGSSRAIFSVGPVSPGRRWWYRCYAYDSNSPYEWSLPSDLLELLVL"
≤ 1000,≤ 2,"SEQ ID NO 106 (receptor, mutated soluble two domain ILT-2) MGHLPKPTLWAEPGSVITLGQPVTLRCQGGQETQEYRLYREKKTAPWITRIPQELVKKGQFPIPSITWEHAGRYRCYYGSDTSQWSASSDPLELVVTGIYLAPTLSAQPSPVVNSGGNVTLQCDSQVAFDGFILCKEGEDEHPQCLNSQPHARGSSRAIFSVGPVSPSRRWWYRCYAYDSNSPYEWSLPSDLLELLVL"
≤ 1000,≤ 2,"SEQ ID NO 92 (receptor, mutated soluble two domain ILT-2) MGHLPKPTLWAEPGSVITQGSPVTLRCQGGQETQEYRLYREKKTAPWITRIPQELVKKGQFPIPSITWEHAGRYRCVGWAVTAGRSESSDPLELVVTGVYIKPTLSAQPSPVVNSGGNVTLQCDSQVAFDGFILCKEGEDEHPQCLNSQPHARGSSRAIFSVGPVSPSRRWWYRCYAYDSNSPYEWSLPSDLLELLVL"
≤ 1000,≤ 2,"SEQ ID NO 88 (receptor, mutated soluble two domain ILT-2) MGHLPKPTLWAEPGSVITVGQPVTLRCQGGQETQEYRLYREKKTAPWITRIPQELVKKGQFPIPSITWEHAGRYRCYYGSDTAGRSESSDPLELVVTGVYIKPTLSAQPSPVVNSGGNVTLQCDSQVAFDGFILCKEGEDEHPQCLNSQPHARGSSRAIFSVGPVSPGRRWWYRCYAYDSNSPYEWSLPSDLLELLVL"
≤ 1000,≤ 2,"SEQ ID NO 100 (receptor, mutated soluble two domain ILT-2) MGHLPKPTLWAEPGSVITQGSPVTLRCQGGQETQEYRLYREKKTAPWITRIPQELVKKGQFPIPSITWEHAGRYRCYYGSDTAGRSESSDPLELVVTGIYLQPTLSAQPSPVVNSGGNVTLQCDSQVAFDGFILCKEGEDEHPQCLNSQPHARGSSRAIFSVGPVSPGRRWWYRCYAYDSNSPYEWSLPSDLLELLVL"
≤ 1000,≤ 2,"SEQ ID NO 87 (receptor, mutated soluble two domain ILT-2) MGHLPKPTLWAEPGSVITQGRPVTLRCQGGQETQEYRLYREKKTAPWITRIPQELVKKGQFPIPSITWEHAGRYRCYYGSDTAGRSESSDPLELVVTGVYIKPTLSAQPSPVVNSGGNVTLQCDSQVAFDGFILCKEGEDEHPQCLNSQPHARGSSRAIFSVGPVSPSRRWWYRCYAYDSNSPYEWSLPSDLLELLVL"
≤ 1000,≤ 2,"SEQ ID NO 99 (receptor, mutated soluble two domain ILT-2) MGHLPKPTLWAEPGSVITQGSPVTLRCQGGQETQEYRLYREKKTAPWITRIPQELVKKGQFPIPSITWEHAGRYRCYYGSDTAGRSESSDPLELVVTGIYQAPTLSAQPSPVVNSGGNVTLQCDSQVAFDGFILCKEGEDEHPQCLNSQPHARGSSRAIFSVGPVSPGRRWWYRCYAYDSNSPYEWSLPSDLLELLVL"
≤ 1000,≤ 2,"SEQ ID NO 102 (receptor, mutated soluble two domain ILT-2) MGHLPKPTLWAEPGSVITQGSPVTLRCQGGQETQEYRLYREKKTAPWITRIPQELVKKGQFPIPSITWEHAGRYRCYYGSDTAGRSESSDPLELVVTGIYQKPTLSAQPSPVVNSGGNVTLQCDSQVAFDGFILCKEGEDEHPQCLNSQPHARGSSRAIFSVGPVSPSRRWWYRCYAYDSNSPYEWSLPSDLLELLVL"
≤ 1000,≤ 2,"SEQ ID NO 95 (receptor, mutated soluble two domain ILT-2) MGHLPKPTLWAEPGSVITQGSPVTLRCQGGQETQEYRLYREKKTAPWITRIPQELVKKGQFPIPSITWEHAGRYRCQGVSQTAGRSESSDPLELVVTGVYIKPTLSAQPSPVVNSGGNVTLQCDSQVAFDGFILCKEGEDEHPQCLNSQPHARGSSRAIFSVGPVSPSRRWWYRCYAYDSNSPYEWSLPSDLLELLVL"
≤ 1000,≤ 2,"SEQ ID NO 101 (receptor, mutated soluble two domain ILT-2) MGHLPKPTLWAEPGSVITQGSPVTLRCQGGQETQEYRLYREKKTAPWITRIPQELVKKGQFPIPSITWEHAGRYRCYYGSDTAGRSESSDPLELVVTGIYKQPTLSAQPSPVVNSGGNVTLQCDSQVAFDGFILCKEGEDEHPQCLNSQPHARGSSRAIFSVGPVSPGRRWWYRCYAYDSNSPYEWSLPSDLLELLVL"
≤ 1000,≤ 2,"SEQ ID NO 105 (receptor, mutated soluble two domain ILT-2) MGHLPKPTLWAEPGSVITMDQPVTLRCQGGQETQEYRLYREKKTAPWITRIPQELVKKGQFPIPSITWEHAGRYRCYYGSDTSQWSASSDPLELVVTGIYLAPTLSAQPSPVVNSGGNVTLQCDSQVAFDGFILCKEGEDEHPQCLNSQPHARGSSRAIFSVGPVSPSRRWWYRCYAYDSNSPYEWSLPSDLLELLVL"
≤ 1000,≤ 2,"SEQ ID NO 94 (receptor, mutated soluble two domain ILT-2) MGHLPKPTLWAEPGSVITQGSPVTLRCQGGQETQEYRLYREKKTAPWITRIPQELVKKGQFPIPSITWEHAGRYRCYYGGQEGARSESSDPLELVVTGVYIKPTLSAQPSPVVNSGGNVTLQCDSQVAFDGFILCKEGEDEHPQCLNSQPHARGSSRAIFSVGPVSPSRRWWYRCYAYDSNSPYEWSLPSDLLELLVL"
≤ 1000,≤ 2,"SEQ ID NO 89 (receptor, mutated soluble two domain ILT-2) MGHLPKPTLWAEPGSVITLGQPVTLRCQGGQETQEYRLYREKKTAPWITRIPQELVKKGQFPIPSITWEHAGRYRCYYGSDTAGRSESSDPLELVVTGVYIKPTLSAQPSPVVNSGGNVTLQCDSQVAFDGFILCKEGEDEHPQCLNSQPHARGSSRAIFSVGPVSPGRRWWYRCYAYDSNSPYEWSLPSDLLELLVL"
≤ 1000,≤ 2,"SEQ ID NO 97 (receptor, mutated soluble two domain ILT-2) MGHLPKPTLWAEPGSVITQGSPVTLRCQGGQETQEYRLYREKKTAPWITRIPQELVKKGQFPIPSITWEHAGRYRCYYGSDTAGRSESSDPLELVVTGIYKAPTLSAQPSPVVNSGGNVTLQCDSQVAFDGFILCKEGEDEHPQCLNSQPHARGSSRAIFSVGPVSPGRRWWYRCYAYDSNSPYEWSLPSDLLELLVL"
≤ 1000,≤ 2,"SEQ ID NO 103 (receptor, mutated soluble two domain ILT-2) MGHLPKPTLWAEPGSVITMDQPVTLRCQGGQETQEYRLYREKKTAPWITRIPQELVKKGQFPIPSITWEHAGRYRCYYGSDTAGRSESSDPLELVVTGIYLAPTLSAQPSPVVNSGGNVTLQCDSQVAFDGFILCKEGEDEHPQCLNSQPHARGSSRAIFSVGPVSPSRRWWYRCYAYDSNSPYEWSLPSDLLELLVL"
≤ 1000,≤ 2,"SEQ ID NO 86 (receptor, mutated soluble two domain ILT-2) MGHLPKPTLWAEPGSVITQGAPVTLRCQGGQETQEYRLYREKKTAPWITRIPQELVKKGQFPIPSITWEHAGRYRCYYGSDTAGRSESSDPLELVVTGVYIKPTLSAQPSPVVNSGGNVTLQCDSQVAFDGFILCKEGEDEHPQCLNSQPHARGSSRAIFSVGPVSPGRRWWYRCYAYDSNSPYEWSLPSDLLELLVL"
≤ 1000,≤ 2,"SEQ ID NO 96 (receptor, mutated soluble two domain ILT-2) MGHLPKPTLWAEPGSVITQGSPVTLRCQGGQETQEYRLYREKKTAPQITRIPQELVKKGQFPIPSITWEHAGRYRCYYGSDTAGRSESSDPLELVVTGVYVAPTLSAQPSPVVNSGGNVTLQCDSQVAFDGFILCKEGEDEHPQCLNSQPHARGSSRAIFSVGPVSPGRRWWYRCYAYDSNSPYEWSLPSDLLELLVL"
≤ 1000,≤ 2,"SEQ ID NO 98 (receptor, mutated soluble two domain ILT-2) MGHLPKPTLWAEPGSVITQGSPVTLRCQGGQETQEYRLYREKKTAPWITRIPQELVKKGQFPIPSITWEHAGRYRCYYGSDTAGRSESSDPLELVVTGIYQRPTLSAQPSPVVNSGGNVTLQCDSQVAFDGFILCKEGEDEHPQCLNSQPHARGSSRAIFSVGPVSPGRRWWYRCYAYDSNSPYEWSLPSDLLELLVL"
≤ 1000,≤ 2,"SEQ ID NO 91 (receptor, mutated soluble two domain ILT-2) MGHLPKPTLWAEPGSVITQGSPVTLRCQGGQETQEYRLYREKKTAPWITRIPQELVKKGQFPIPSVTWEHAGRYRCYYGSDTAGRSESSDPLELVVTGVYIKPTLSAQPSPVVNSGGNVTLQCDSQVAFDGFILCKEGEDEHPQCLNSQPHARGSSRAIFSVGPVSPSRRWWYRCYAYDSNSPYEWSLPSDLLELLVL"
≤ 1000,≤ 2,"SEQ ID NO 104 (receptor, mutated soluble two domain ILT-2) MGHLPKPTLWAEPGSVITLGQPVTLRCQGGQETQEYRLYREKKTAPWITRIPQELVKKGQFPIPSITWEHAGRYRCYYGSDTAGRSESSDPLELVVTGIYLAPTLSAQPSPVVNSGGNVTLQCDSQVAFDGFILCKEGEDEHPQCLNSQPHARGSSRAIFSVGPVSPSRRWWYRCYAYDSNSPYEWSLPSDLLELLVL"
≤ 1000,≤ 2,"SEQ ID NO 19 (receptor, mutated soluble two domain ILT-2; also called clone 83; Clone c83) MAGHLPKPTLWAEPGSVITMDQPVTLRCQGGQETQEYRLYREKKTAPWITRIPQELVKKGQFPIPSITWEHAGRYRCYYGSDTSQWSASSDPLELVVTGVYIKPTLSAQPSPVVNSGGNVTLQCDSQVAFDGFILCKEGEDEHPQCLNSQPHARGSSRAIFSVGPVSPSRRWWYRCYAYMSWSPYEWSLPSDLLELDVDG"
